Source: US20230212319A1, “NOVEL ANTIGEN BINDING DOMAINS AND SYNTHETIC ANTIGEN RECEPTORS INCORPORATING THE SAME” (University of Southern California, priority 2020, published 2023)

B1: 22140 (protein)
chain: MALPVTALLLPLALLLHAARPACEVQLLESGGGLIQPGGSLRLSCAASGFTFSSHAMTWVRQAPGKGLEWVSAISGSGDYTHYADSVKGRFTISRDNSKNTVYLQMNSLRAEDSAVYYCAKDEDGGSLLGHRGQGTLVTVSSGTGGGGSGGGGSGGGGSEFDIQMTQSPSSLSASVGDRVTITCKASDHINNWLAWYQQKPGQAPKLLIYGATTLETGVPSRFSGSGSGTDYTLTISSLQPEDFATYYCQQSWNTPWTFGQGTKLEIKRLEGQPKANPTVTLFPPSSEELQANKATLVCLISDFYPGAVTVAWKADGSPVKAGVETTKPSKQSNNKYAASSYLSLTPEQWKSHRSYSCQVTHEGSTVEKTVAPTECSGRADCGFTSESYQQGVLSATILYEILLGKATLYAVLVSALVLMAMVKRKDSRGRAKRSGSGATNFSLLKQAGDVEENPGPTSATMDWIWRILFLVGAATGAHSGPQVQLQESGGGLAQAGGSLRLSCAASGRTFSMGWFRQAPGKEREFVAAITYSGGSPYYASSVRGRFTISRDNAKNTVYLQMNSLKPEDTAVYYCAANPTYGSDWNAENWGQGTQVTVSSGSGGGGSGGGGSGGGGSFEQVQLQQPGAELVKPGASVKMSCKASGYAFSSYWINWMKQKPGQGLEWIGQIYPGDGDTNYNGKFKGRATLTADTSSSTAYMQLSSLTSEDSAVYFCARSITTVVGCAMDYWGQGTSVTVSSTRASTKGPSVFPLAPSSKSTSGGTAALGCLVKDYFPEPVTVSWNSGALTSGVHTFPAVLQSSGLYSLSSVVTVPSSSLGTQTYICNVNHKPSNTKVDKRVEPKSCIPEDTFFPSPESSCDVKLVEKSFETDTNLNFQNLSVIGFRILLLKVAGFNLLMTLRLWSSRAKRSGSGVKQTLNFDLLKLAGDVESNPGPSRGHMTEYKPTVRLATRDDVPRAVRTLAAAFADYPATRHTVDPDRHIERVTELQELFLTRVGLDIGKVWVADDGAAVAVWTTPESVEAGAVFAEIGPRMAELSGSRLAAQQQMEGLLAPHRPKEPAWFLATVGVSPDHQGKGLGSAVVLPGVEAAERAGVPAFLETSAPRNLPFYERLGFTVTADVEVPEGPRTWCMTRKPGA
B2: 22129 (protein)
chain: MALPVTALLLPLALLLHAARPEVQVLESGGGLVQPGGSLRLSCAASGFTFSNFAMSWVRQAPGKGLEWVSTISGSAGTTDYADSVKGRFTISRDNSKKTLYLQMNSLRVEDTAVYYCADGRGPFFDYRGQGTLVTVSSGTGGGGSGGGGSGGGGSEFDIQMTQSPSSLSASVGDRVTITCKASDHINNWLAWYQQKPGQAPKLLIYGATTLETGVPSRFSGSGSGTDYTLTISSLQPEDFATYYCQQSWNTPWTFGQGTKLEIKRLEIQNPDPAVYQLRDSKSSDKSVCLFTDFDSQTNVSQSKDSDVYITDKCVLDMRSMDFKSNSAVAWSNKSDFACANAFNNSIIPEDTFFPSSDVPCDVKLVEKSFETDTNLNFQNLSVIGFRILLLKVAGFNLLMTLRLWSSRAKRSGSGVKQTLNFDLLKLAGDVESNPGPTSATMDWIWRILFLVGAATGAHSGPQVQLQESGGGLAQAGGSLRLSCAASGRTFSMGWFRQAPGKEREFVAAITYSGGSPYYASSVRGRFTISRDNAKNTVYLQMNSLKPEDTAVYYCAANPTYGSDWNAENWGQGTQVTVSSGSGGGGSGGGGSGGGGSFEQVQLQQPGAELVKPGASVKMSCKASGYAFSSYWINWMKQKPGQGLEWIGQIYPGDGDTNYNGKFKGRATLTADTSSSTAYMQLSSLTSEDSAVYFCARSITTVVGCAMDYWGQGTSVTVSSTREDLKNVFPPEVAVFEPSKAEIAHTQKATLVCLATGFYPDHVELSWWVNGKEVHSGVCTDPQPLKEQPALNDSRYCLSSRLRVSATFWQNPRNHFRCQVQFYGLSENDEWTQDRAKPVTQIVSAEAWGRADCGITSASYHQGVLSATILYEILLGKATLYAVLVSALVLMAMVKRKDSRGRAKRSGSGATNFSLLKQAGDVEENPGPSRGHMTEYKPTVRLATRDDVPRAVRTLAAAFADYPATRHTVDPDRHIERVTELQELFLTRVGLDIGKVWVADDGAAVAVWTTPESVEAGAVFAEIGPRMAELSGSRLAAQQQMEGLLAPHRPKEPAWFLATVGVSPDHQGKGLGSAVVLPGVEAAERAGVPAFLETSAPRNLPFYERLGFTVTADVEVPEGPRTWCMTRKPGA

How the values were obtained:
Assay type in all cases: cell-based
RAJI cells = assay: JNG assay, co-culture with RAJI cells; conditions: JNG cells expressing construct, co-culture with Raji
Method in brief: (§1)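 Jurkat-NFAT-GFP (JNG) cells stably expressing SAR constructs via lentiviral transduction and puromycin/blasticidin selection were cocultured with target cells at E:T ~1:2 for ~4–18 h. NFAT-driven GFP was measured by FACS versus parental JNG cells; scores +/- to 5+ denote ~5–50% GFP-positive cells.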

Nalm6 cells = assay: JNG assay, co-culture with Nalm6 cells; conditions: co-culture with Nalm6
Method in brief: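 Values are semi-quantitative grades of GFP induction, each step approximating 10% more GFP+ cells (5+ ≈50%) above parental reporter cells, measured by FACS after SAR-transduced JNG cells were cultured with targets at ~1:2 E:T for ~4–18 h.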

L363 cells = assay: JNG assay, co-culture with L363 cells; conditions: co-culture with L363
Method in brief: as §1

RS;411 = assay: JNG assay, co-culture with RS;411 cells; conditions: co-culture with RS411
Method in brief: as §1

RAJI-CD19-KO cells = assay: JNG assay, co-culture with RAJI-CD19-KO cells; conditions: co-culture with Raji-CD19-KO
Method in brief: as §1

Row | Molecule | NFAT-GFP ASSAY: Raji (RAJI cells) | NFAT-GFP ASSAY: Nalm6 (Nalm6 cells) | NFAT-GFP ASSAY: L363 (L363 cells) | NFAT-GFP ASSAY: RS411 (RS;411) | NFAT-GFP ASSAY: Raji-CD19-KO (RAJI-CD19-KO cells)
1 | B1 | 5+ (refer to approximately 5%, 10%, 20%, 30%, 40% and 50% GFP positive cells) | 5+ (refer to approximately 5%, 10%, 20%, 30%, 40% and 50% GFP positive cells) | 2+ (refer to approximately 5%, 10%, 20%, 30%, 40% and 50% GFP positive cells) | 4+ (refer to approximately 5%, 10%, 20%, 30%, 40% and 50% GFP positive cells) | 4+ (refer to approximately 5%, 10%, 20%, 30%, 40% and 50% GFP positive cells)
2 | B2 | Raji (+), Raji-CD19-KO (+), Nalm6 (+), L363 (+), RS411 (+) (refer to approximately 5%, 10%, 20%, 30%, 40% and 50% GFP positive cells) | Raji (+), Raji-CD19-KO (+), Nalm6 (+), L363 (+), RS411 (+) (refer to approximately 5%, 10%, 20%, 30%, 40% and 50% GFP positive cells) | Raji (+), Raji-CD19-KO (+), Nalm6 (+), L363 (+), RS411 (+) (refer to approximately 5%, 10%, 20%, 30%, 40% and 50% GFP positive cells) | Raji (+), Raji-CD19-KO (+), Nalm6 (+), L363 (+), RS411 (+) (refer to approximately 5%, 10%, 20%, 30%, 40% and 50% GFP positive cells) | Raji (+), Raji-CD19-KO (+), Nalm6 (+), L363 (+), RS411 (+) (refer to approximately 5%, 10%, 20%, 30%, 40% and 50% GFP positive cells)
